Test results as given in article PMC5620376.

Experiments:
Experiment in all cases: pull-down
GST-Gos1 (yeast) = target: T1, GST-Gos1 (yeast)
T1 sequence (P38736 whole entry, looked up): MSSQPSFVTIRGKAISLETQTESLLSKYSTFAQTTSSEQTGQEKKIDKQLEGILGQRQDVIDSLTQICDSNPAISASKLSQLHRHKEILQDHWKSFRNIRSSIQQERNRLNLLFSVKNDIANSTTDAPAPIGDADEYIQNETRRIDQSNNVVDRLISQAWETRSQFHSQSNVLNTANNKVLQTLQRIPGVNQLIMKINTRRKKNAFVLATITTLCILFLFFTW

GST-Bet1 (yeast) = target: T2, GST-Bet1 (yeast)
T2 sequence (P22804 whole entry, looked up): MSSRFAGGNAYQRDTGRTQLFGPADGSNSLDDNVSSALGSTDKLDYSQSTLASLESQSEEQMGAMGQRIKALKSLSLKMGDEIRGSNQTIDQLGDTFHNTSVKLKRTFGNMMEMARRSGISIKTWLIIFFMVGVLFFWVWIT

GST-Sft1 (yeast) = target: T3, GST-Sft1 (yeast)
T3 sequence (P43682 whole entry, looked up): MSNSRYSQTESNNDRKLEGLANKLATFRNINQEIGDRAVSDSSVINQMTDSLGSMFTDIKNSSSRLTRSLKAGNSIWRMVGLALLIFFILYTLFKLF

GST = target: GST
GST-Sed5 (yeast) = target: GST-Sed5 (yeast)
GST-Ykt6 (yeast) = target: T4, GST-Ykt6 (yeast)
T4 sequence (P36015 whole entry, looked up): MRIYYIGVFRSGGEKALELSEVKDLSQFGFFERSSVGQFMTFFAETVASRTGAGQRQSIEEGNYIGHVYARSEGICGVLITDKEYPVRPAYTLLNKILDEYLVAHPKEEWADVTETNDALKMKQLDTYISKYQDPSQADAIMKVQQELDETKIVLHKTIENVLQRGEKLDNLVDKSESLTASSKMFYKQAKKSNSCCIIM

Chain of GST-Sed5 (yeast) (Q01590 whole entry): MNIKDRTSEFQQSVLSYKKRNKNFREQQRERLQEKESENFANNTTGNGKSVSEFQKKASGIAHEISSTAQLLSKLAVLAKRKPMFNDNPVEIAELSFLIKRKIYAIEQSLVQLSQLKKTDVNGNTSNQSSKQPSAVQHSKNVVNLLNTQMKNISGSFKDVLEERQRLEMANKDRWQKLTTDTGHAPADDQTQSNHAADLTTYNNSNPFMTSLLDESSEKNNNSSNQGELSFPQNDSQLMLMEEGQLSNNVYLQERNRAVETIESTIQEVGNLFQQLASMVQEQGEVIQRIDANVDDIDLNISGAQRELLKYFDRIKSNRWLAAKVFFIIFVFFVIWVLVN

percent of input recovered (GST-Gos1 (yeast)): 15% | percent of input recovered (GST-Bet1 (yeast)): < 1% | percent of input recovered (GST-Sft1 (yeast)): 15% | percent of input recovered (GST): < 1% | percent of input recovered (GST-Sed5 (yeast)): 15% | percent of input recovered (GST-Ykt6 (yeast)): < 1%
B1: Coy1ΔTM-HA (domain or fragment)
chain: MDTSVYSHALDIWAKADLTNLQRELDADVIEIKDKETLSLNSRKSLATETKKFKKLEPEEKLNNVNKIIKQYQREIDNLTQRSKFSEKVLFDVYEKLSEAPDPQPLLQSSLEKLGKIDDSKELKEKISYLEDKLAKYADYETLKSRLLDLEQSSAKTLAKRLTAKTQEINSTWEEKGRNWKEREADLLKQLTNVQEQNKALEAKISKNIDIEGNGNEDGDQENNQKEVSTRIAEYNLVTQELETTQARIYQLEKRNEELSGALAKATSEAEKETELHAKELKLNQLESENALLSASYEQERKSTSHAINELKEQLNSVVAESESYKSELETVRRKLNNYSDYNKIKEELSALKKIEFGVNEDDSDNDIRSEDKNDNTFESSLLSANKKLQATLAEYRSKSTAQEEERNELKKSVDQLKQQIATLKEANEKLETDLEKVENVSPHFNETASMMSGVTRQMNNRTSHKMSPTSSIIGIPEDGELSGNQSTILPIVTKQRDRFRSRNMDLEKQLRQGNSEKGKLKLEISKLKGDNTKLYERIRYLQSYNNNNAPVNQSTERIDVESQYSRVYDESLHPMANFRQNELNHYKNKKLSALEKLFSSFAKVILQNKMTR
